# Biological target: T1, M-tropic HIV-1MN envelope glycoprotein gp120 (HIV-1 (strain MN), UniProt P05877 32-513)
# T1 construct: domain: gp120; also called HIV-1 gp120; HIV-1MN gp120
# Assay: fluorescent bead adhesion assay, flow cytometry
binder,measurement,value
"DC-SIGN (receptor, also called THP-DC-SIGN (THP-1 transfectant)) MSDSKEPRLQQLGLLEEEQLRGLGFRQTRGYKSLAGCLGHGPLVLQLLSFTLLAGLLVQVSKVPSSISQEQSRQDAIYQNLTQLKAAVGELSEKSKLQEIYQELTQLKAAVGELPEKSKLQEIYQELTRLKAAVGELPEKSKLQEIYQELTWLKAAVGELPEKSKMQEIYQELTRLKAAVGELPEKSKQQEIYQELTRLKAAVGELPEKSKQQEIYQELTRLKAAVGELPEKSKQQEIYQELTQLKAAVERLCHPCPWEWTFFQGNCYFMSNSQRNWHDSITACKEVGAQLVVIKSAEEQNFLQLQSSRSNRFTWMGLSDLNQEGTWQWVDGSPLLPSFKQYWNRGEPNNVGEEDCAEFSGNGWNDDKCNLAKFWICKKSAASCSRDEEQFLSPAPATPNPPPA",binding result,binds

# Reference: patent US20030064071A1 (NEW YORK UNIVERSITY, published 2003)
